Laboratory results as given in US20160375112A1 (priority 2013, published 2016).

Settings: human, in vivo

For botulinum toxin, the “botulinum toxin-related reactions (hypersensitivity, after injection and before ALDARA)” value was “No botulinum toxin-related reactions”.
